This is an account of results in US20240158493A1 (MYTHIC THERAPEUTICS, published 2024).

The test concerns the target T1, LRRC15 on U-87 MG (LRRC15+) cells (human, UniProt Q8TF66 22-581).
T1 construct: Endogenous LRRC15 of U-87 MG cells (ATCC HTB-14); also called cell surface LRRC15
T1 sequence: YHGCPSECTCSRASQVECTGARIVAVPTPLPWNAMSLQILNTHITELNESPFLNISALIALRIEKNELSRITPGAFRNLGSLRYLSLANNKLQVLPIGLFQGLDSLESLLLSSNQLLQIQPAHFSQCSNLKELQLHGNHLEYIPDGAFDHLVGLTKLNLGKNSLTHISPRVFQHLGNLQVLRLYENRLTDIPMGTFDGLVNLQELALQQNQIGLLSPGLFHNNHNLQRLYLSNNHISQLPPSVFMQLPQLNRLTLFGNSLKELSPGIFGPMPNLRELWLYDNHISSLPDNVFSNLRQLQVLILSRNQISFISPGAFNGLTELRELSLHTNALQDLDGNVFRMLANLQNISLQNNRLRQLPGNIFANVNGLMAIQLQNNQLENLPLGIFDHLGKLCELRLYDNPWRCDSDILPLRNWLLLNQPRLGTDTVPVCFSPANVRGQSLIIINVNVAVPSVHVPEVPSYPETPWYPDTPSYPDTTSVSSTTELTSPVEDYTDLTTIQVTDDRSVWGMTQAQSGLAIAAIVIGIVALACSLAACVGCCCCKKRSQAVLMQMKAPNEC
In words: flow cytometry on U-87 MG (LRRC15+) cells, 60 nM to 1 pM. Here is the method:
FIGS. 40a-40b: Characterization of binding affinity for anti-LRRC15 mAbs. Anti-LRRC15 mAbs were assayed for their binding to U-87 MG (LRRC15+) cells.
Binding affinity of selected LRRC15 pH engineered antibody variants from Example 9 were measured on U-87 MG (LRRC15+) cells. 100,000 U-87 MG cells (ATCC HTB-14) were seeded per well in a 96 well deep well plate. Samrotamab and a pH engineered antibody variant were serially diluted at a 1:3 dilution in ice cold FC buffer (phosphate buffered saline (PBS), pH 7.4+2 mM ethylenediaminetetraacetic acid (EDTA)+2% (v/v) HI FBS). The plates were spun at 2,000 RPM for 2 minutes, the supernatant was removed, and 100 μL of diluted antibody was added to each well with final concentration ranging from 60 nM to 1 pM and incubated for 2 hours at 4° C. Post incubation, the cells were spun at 2000 rpm for 2 min and supernatant was discarded. Cells were washed twice with 500 μL of ice-cold FC buffer and resuspended with 100 μL of FC buffer. […] Post incubation, cells were washed with FC buffer and resuspended in 100 μL of FC buffer to read on a BD Accuri C6 flow cytometer. Binding affinity was measured as a dissociation constant KD by GraphPad Prism assuming Michaelis-Menten binding kinetics.

B1: samrotamab (antibody, V domains shown)
VH: EVQLVQSGAEVKKPGASVKVSCKASGYKFSSYWIEWVKQAPGQGLEWIGEILPGSDTTNYNEKFKDRATFTSDTSINTAYMELSRLRSDDTAVYYCARDRGNYRAWFGYWGQGTLVTVSS
VL: DIQMTQSPSSLSASVGDRVTITCRASQDISNYLNWYQQKPGGAVKFLIYYTSRLHSGVPSRFSGSGSGTDYTLTISSLQPEDFATYFCQQGEALPWTFGGGTKVEIK
notes: IgG; the entries called heavy and light chain hold the variable domains only; also called MYT0963
B1 returned a half-inhibitory concentration (IC50) of 0.228 nM.

B2: MYT0971 (antibody, V domains shown)
VH: EVQLVQSGAEVKKPGASVKVSCKASGYKFSSYHIEWVKQAPGQGLEWIGEILPGSDTTNYNEKFKDRATFTSDTSINTAYMELSRLRSDDTAVYYCARDRGNYRAWFGYWGQGTLVTVSS
VL: DIQMTQSPSSLSASVGDRVTITCRASQDISNYLNWYQQKPGGAVKFLIYYTSRLHSGVPSRFSGSGSGTDYTLTISSLQPEDFATYFCQQGEALPWTFGGGTKVEIK
notes: IgG
Molecule B2 came in with an IC50 of 0.484 nM.
